Seven molecules from patent US20160009772A1, “CELL PENETRATING PEPTIDES WHICH BIND IRF5” (priority 2012, published 2016) can be followed below.

To fix the notation:
B1: Ac-…-NH2 (SEQ ID NO: 8) (peptide)
peptide: Ac-KDLMVQWFKDGGPSSGAPPPS-NH2
B2: Ac-…-NH2 (SEQ ID NO: 14) (peptide)
peptide: Ac-MIILIISFPKHKDWKVILVK-NH2
B3: FITC-Aha-…-NH2 (SEQ ID NO: 16) (peptide)
peptide: XIRLQISNPYLKFIPLKRAIWLIK
modifications: N-terminal FITC-Aha (fluorescein isothiocyanate on amino hexanoic acid), C-terminal amide (NH2)
B4: Ac-…-NH2 (SEQ ID NO: 9) (peptide)
peptide: Ac-IRLQISNPDLKDLMVQWFKDGGPSSGAPPPS-NH2
B5: Ac-…-NH2 (SEQ ID NO: 23), control CPP designed not to bind IRF5 (peptide)
peptide: Ac-YLKFIPLKRAIWLIK-NH2
B6: FITC-Aha-…-NH2 (SEQ ID NO: 17) (peptide)
peptide: XMIILIISFPKHKDWKVILVK
modifications: N-terminal FITC-Aha (fluorescein isothiocyanate on amino hexanoic acid), C-terminal amide (NH2)
B7: Ac-…-NH2 (SEQ ID NO: 10) (peptide)
peptide: Ac-PFPPLPIGEEAPKDDMVRFFKDLHQYLNVV-NH2

Some results are limits rather than exact numbers.

Chain of IRF5(222-467, S430D), S430D phosphomimetic construct of IRF5 (222-467) (human), Q13568 (Q13568 232-477 S440D limits assumed): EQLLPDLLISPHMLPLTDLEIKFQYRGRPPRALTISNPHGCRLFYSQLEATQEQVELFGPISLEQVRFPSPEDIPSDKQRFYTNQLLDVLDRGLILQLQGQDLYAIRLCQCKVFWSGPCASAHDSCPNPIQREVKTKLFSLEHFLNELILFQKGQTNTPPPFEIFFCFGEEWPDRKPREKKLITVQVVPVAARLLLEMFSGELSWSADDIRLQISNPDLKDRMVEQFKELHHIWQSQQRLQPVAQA

The first assay has as its target IRF5(222-467, S430D), S430D phosphomimetic construct of IRF5 (222-467) (human), Q13568.
Experiment: not given
A word on the IC50: it is the concentration that inhibits the measured activity by half. Lower therefore signals higher potency. B1 came in with an IC50 of 1680 nM. This counts as single-digit micromolar.

A further assay deals with Wild type IRF5 (222-467) (human) (UniProt Q13568). The assay is described as follows: TR-FRET IRF5 dimerization inhibition, WT (222-467), peptide titrated. For orientation: TR-FRET usually uses a lanthanide donor and a delayed reading to cut background.
Turning to B2, the IC50 came out at 18600 nM.
Same read-out and setting: then B3, with 46500 nM; and B4, with 1400 nM; and B5, with above 75000 nM.
B1 returned an IC50 of 790 nM.
Take B6: the IC50 was 5300 nM.
With B7, the IC50 is 350 nM.
